In assay [1] the target is ClC-2 tagged with mVenus and PAmCherry (human) (UniProt P51788). The assay is described as follows: native gel or EMSA; high-resolution clear native electrophoresis (hrCNE); lysate of transfected HEK293T cells in 0.1 M sodium phosphate with 0.5% digitonin or 20 mM DDM; 4-14% acrylamide gradient gel run at 4 °C; mVenus fluorescence scanned; VGLUTs and sialin with and without PNGaseF. A general note: In EMSA bound probe runs differently from free probe, usually more slowly.

Assay [2] has as its target bClC-K tagged with mVenus and PAmCherry (Bos taurus). The assay is described as above.

Sequence of ClC-2 tagged with mVenus and PAmCherry (P51788 2-898): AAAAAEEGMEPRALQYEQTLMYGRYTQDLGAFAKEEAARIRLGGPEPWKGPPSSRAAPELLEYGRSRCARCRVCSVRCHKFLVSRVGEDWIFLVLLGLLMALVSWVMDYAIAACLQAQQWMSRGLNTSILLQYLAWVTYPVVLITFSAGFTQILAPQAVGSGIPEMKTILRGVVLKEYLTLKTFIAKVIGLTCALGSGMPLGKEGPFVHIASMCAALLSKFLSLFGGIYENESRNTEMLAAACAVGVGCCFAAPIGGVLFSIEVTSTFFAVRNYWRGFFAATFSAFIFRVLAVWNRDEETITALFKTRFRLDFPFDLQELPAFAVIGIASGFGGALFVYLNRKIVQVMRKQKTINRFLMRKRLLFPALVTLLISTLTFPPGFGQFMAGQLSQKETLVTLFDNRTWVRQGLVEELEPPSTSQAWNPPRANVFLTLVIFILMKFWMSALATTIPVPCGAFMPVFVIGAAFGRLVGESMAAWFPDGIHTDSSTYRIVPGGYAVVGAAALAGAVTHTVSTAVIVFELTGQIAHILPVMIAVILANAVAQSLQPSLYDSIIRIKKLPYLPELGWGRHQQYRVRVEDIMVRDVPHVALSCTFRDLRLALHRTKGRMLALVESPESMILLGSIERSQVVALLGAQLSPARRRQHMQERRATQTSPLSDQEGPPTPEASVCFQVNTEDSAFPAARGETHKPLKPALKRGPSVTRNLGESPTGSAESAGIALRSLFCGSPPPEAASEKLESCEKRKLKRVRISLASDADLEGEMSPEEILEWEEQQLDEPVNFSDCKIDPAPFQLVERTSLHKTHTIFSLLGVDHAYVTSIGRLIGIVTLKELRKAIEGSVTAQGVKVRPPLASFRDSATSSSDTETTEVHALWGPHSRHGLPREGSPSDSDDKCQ

In the case of “ClC-2 tagged with mVenus and PAmCherry (from UniProt P51788 1-898) (natural protein)”, the stoichiometry N (commonly the number of molecules, sites or subunits per partner or assembly) in assay [1] came out at 2.

Take “bClC-K tagged with mVenus and PAmCherry (natural protein)”: the stoichiometry N in assay [2] was determined as 2.
